# The nanobody polyreactivity screen of Harvey et al. (2022)
# Experiment: yeast display, Sf9 membrane polyspecificity reagent, FACS + sequencing; frameworks hold sequencing errors
# How it was run: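 In a synthetic yeast display library (Saccharomyces cerevisiae BJ5465), nanobody expression was induced with galactose for 36–48 hours. FACS gates were set low and high (top ~1%) using anti-HA fluorescence for expression and streptavidin fluorescence for binding of the Sf9 membrane reagent. Each polyreactivity label is drawn from the gate of origin.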
row,Sequence,polyreactivity (PSR sort gate)
1,HVQLVESGGGLVQAGGSLRLSCAASGRIFLIYAMGWYRQAPGKEWELFAAIRSGGSTNYADSVKGRFTISRDNAKNTVYLLMNSLNPEDTAVYYCAVRSRVYPSRVKYDYWGQGTQVTVSS,high polyreactivity
2,QVQLVESGGGLVQAGGSLRLICAASGFIFTYYGMGWYRQAPGKERELVAAITWSGASTYYADSVKGRFTISRDNAKNTVYLQMNSLKPEDTAVYYCNAGWDSGIVQSDETVYKYDYWGQGTQVTVSS,low polyreactivity
3,QVQLVESGGGLVQAGGSLRLSCAASGFTFRYYAMGWYRQEPGKERELVARISSGGSTNYADSVKGRFTISRDNAKNTVYLQMNSLKPEDTSVKYCAARLDHWLIYAYDYWGQGTQVTVSS,high polyreactivity
4,QVQLVESGGGLVQAGGSLRLSCAASGFTFKKNAMGWYRPAPGKERELVAAISRSGGITYYADSVKGRFTISRDNAKNTVYLQMNSLKPEDTAVSYCATQTYRTPAYPAYGYWGQGTQVTVSS,high polyreactivity
5,QVQLVESGGGLVQAGGSLRLTCAASGFTFYGYAMGRYRQAPGKERELVAAISSSGTSTYSGDSVKGRFTISRDNAKNTVYLQMNSLKPEDTAVYYCAKDFYRRFYSWGQGTQVTLSS,high polyreactivity
6,QVQLVESGGGLVQAGGSLRLSCAASGSIFVSNAMGWSRQAPGKERELVAAITRSGGSTYYADSVKGRFTISRDNAKNTVYLQMNCLKPEDTAVYYCAAATYRYGYGYWGQGTQVTVSS,high polyreactivity
7,QVQLVESGGGLVQAGGSLRLSCAASGFTFRWYAMGWYRPAPGKERELVADISRGGSTNYADSVKGRFTISRDNAKNTVYLQMNSLKPEDTAVYYCAAVVYRATYRVGGYLWYYYWGQGTQVTVSS,high polyreactivity
8,QVQLVESGGGLVQAGGSLRLSCAASGFTFRWYAMGWYRQAPGKERELVAAISTSGGSTYYADSVKGRFTITRDNAKNTVYLQMNSLKPEDTSVYYCNRVNNYPTRKYDYWGQGSQVTVSS,high polyreactivity
9,QVQLVESGGGLVQAGGSLRLSCAASGRTFRIYAMGWYRQAPGKERELVAAIRWSGGTTYYADSVKGGFTISRDNAKNTVYLQMNSLNPDDTAVYYCAADSTNRYDYWGQGTQVTVSS,high polyreactivity
10,QVQLVESGGGLVQAGGSLRLSCAASGRIFNYNAMGWYRQAPGKERELVAVITSGDSTNYADSVKGRFTISRDNAKNTVYLQMNSLKPVDTAVYYCAAEYYSIRYGPNSIEVYGMDYWGQGTQVTVSS,low polyreactivity
11,QVQLVESGGGLVQAGGSLRLSCAASGSTFYAYALGWYRQAPGKERELVAAISSDGTNYADSVKGRFTISRDNAKNTVYLQMNSLKPVDTAVYYCAADLLLYSSQDNDYWGQGTQVTVSS,low polyreactivity
12,QVQLVESGGGLVQAGGSLRLSCAASGLTFVQNAMGWYRQAPGKERELVAAISSRGGSTYYADSVKGRFTISRDNAKNTVYLQMNSLKPEDTAVYYCNTRSITKYDYWRRGYGYWGQGTQVTVSS,high polyreactivity
13,QVQLVESGGGLVQAGGSLRLSCAASGSIFTPYAMGWYRQAPGKERELVAAISYSGGSTYYADSVKGRFTISRDNAKNTVYLQMNSLKPEDTAVYYCATDGYVYTPFDDDEDYWGQGTQVTVSS,low polyreactivity
14,QVQLVESGGGLVQAGGSLRLSSAASGSIFRSNAMGWYRQAPGKERELVAAIDYSGTSTTYADSVKGRFTISRDNAKNTVYLQMNRLKPEDTAVYYCNADGYYRGYWSGYEYWGQGTQVTVSS,low polyreactivity
15,QVQLVESGGGLVQAGGSLRLSCAASGFTFAVYAMGWYRQAPGKERELVAAISRSGTRTYYADSVKGRFTISRDNAKNTVYLQMNSLKPEDTAVYYCAAPWTQILDYWGQGTQVTVSS,low polyreactivity
16,HVQHVDSGGGLVQAGGSLRLSFAAYGRIFVNNAMGWYRQATGKERELVAAISQNGGRTYYADSVKGRFTISRDNAKNTVYLQMNSLKPEDTAVYYCAAGQARAGLIGGYWGQGTQVTVSS,high polyreactivity
17,QVQLVESGGGLVQAGGSLRLSCAASGYIFGYYAMGWYRQAPGKERELVAAISTDGSTDYADSVKGRFTISRDNAKKTVYLQMNSLKPEDTAVYYCAKELFIVTNGVYIYDSWGQGTQVTVSS,low polyreactivity
18,QVQLVESGGGLVQAGGSLRLSCAASGLTFDVYAMGWYRQAPGKERELVAALSTSGGRTYSADSVKGRFTISRDNAKNTVYLQMNSLKPEVTAVYYCNAGYDYYWRYYWYWYAFNYWGQGTQVTVSS,high polyreactivity
19,QVQLVESAGGLVQAGGSLSLSCAASGSTFASYAMGWYRQAPGKEREFVAAITRSGTSTYYADSVKGRFTISRDNAKNTVYLQMNSLKPEDTAVYYCNATRRTVGFGYWGQGTQVTVSS,high polyreactivity
20,QVQLVESGGGLVQAGGSLRLSCDASGSTFVGYTMGWYRQAPGKERELVAAITWRGGITYYADSVKGLFTISRDNAKNTVYLQMKSLKPEDTAVYYCAGARYRHGRSGTYDVTGEYWGQGTQVTVSS,high polyreactivity
21,QVQLVESGGGLVQAGGSLRLSCAASGRTFVGNAIGWYRQATGKERELVAAINGSGGSTYYEDSVKGRFTISRDNAKNTVYLQMNSLKPEDPAVYYCNARPGVYVVIYDYWGQGTQVTVSS,low polyreactivity
22,QVQLVESGGGLVQAGGSLRLSCAASGRIFFRYTMGWYRQAPGKESELVAAITKRGGTYYADSVKGRFTISRDNAKNTVYLQMNSLKPEDTAVYYCNAVRYGINSYTYRRGYWGQGTQVTVSS,high polyreactivity

row,Sequence,polyreactivity (PSR sort gate)
1,QVQLVESGGGLVQAGGSLRLSCAASGFTFSAYAMGWYRPAPGKERELVAAISWSGSRTYYADSVKGRFTISRDNAKNTVYLQMNSLKQEDTEVYYCAKEPYDTFGFYEYDYWGQGTQVTVSS,low polyreactivity
2,QVQLVESGGGLVQAGGSLRLSCAASGFTFTRYTMGWYSQEPGKERELVARITRSGGSTYYADSVKGRFTISRDNAKNTVYLQMNSLKPEDTAVYYCAADTWSYTTRYYYWGQGTQVTVSS,high polyreactivity
3,QVQLVESGGGLVQAGGSLRLSCAASGSTFGPYAMGWYRQAPGKERELVAAIRSDGGTYYADSVKGRFTISRDNAKNTVYLQMNSLKPEDTAVYYCNAVRGAAWRCYNSWQTYPRDYWGQGTQVTVSS,high polyreactivity
4,QVQLVESGGGLVQAGGSLRIRCAASGSTFSEYDMGWYRQAPGKERELVAAITTSGGSTYYADSVKGRFTISSDNAKNTVYLQMNSLKPEDTAVYYCAADSIGNYLLYDYWGQGTQVSVSS,low polyreactivity
5,QVQLVESGGGLVQAGGSLRLSCAASGGTFGFNAMGWYRPAPGKERELVAAISSSGGRTYYADSVNGRFTISRDNAKNNVYLQMMSLKEEDTAVYYCAARVQVGGRSYVGYYYWGKGTQVTVSS,high polyreactivity
6,QVQLVESGGGLFQAGGSLRLSCAATGRTFDPYAMGWYRQAPGKERELVAVISISDGSTYYADSVKGRFTISRDNAKNTVYLQMHSLKPEDTAVYYCAAYVFYDYWTLEYWGQGTQVTVSS,high polyreactivity
7,QVQLVESGGGLVQAGGSLRLSCAASGFTFPVYTMGWYRQAPGKERELVAAISGSGASTYYADSVKGRFTISRDNAKNTVYLQMNSLKPEDTAVYYCAAPLWRNYYFGWMDYWGQGTQVTVSS,high polyreactivity
8,QVQLVESGGGLVQAGGSLRLSCAASGLTFGDYTMGWYRQAPGKERELVAAISTSGGSTYYADSVKGRFTISRDNAKNTVYLQMNSLKPEDTAVYYCNARRTHTRSHYYYWGQGTQVTVSS,high polyreactivity
9,QVQLVESGGGLVQAGGSLRLSCAASGSTFYIYAMGWYRQAPGKERELVAAITWSGGRTFYADSVKGRFTISRDNAKNTVYLHMNSLKPEDTAVYFCSARFWSDKTGSRYYYWGQGTQVTVSS,high polyreactivity
10,QVQLLESGGGLLQAGGSLRLSCAASGSIFDFNAMGWYRQAPGKERELVAAITYIGDSTYYADSVKGRFTISRDNAKNTVYLQMNILKPEDTAVYYCANYRYPSRQYSFPLGYDYWGQGTQVTVSS,high polyreactivity
11,QVQLVESGGGLVQAGGSLRLSCAASGSTFLSYAMGWYRQAPGKERELVAAISCRGGSTYYADSVKGRFTISRDNAKNTVYLQMNSLKPEDTAVYYCARVYRPSADTYNYWGQGTKVTVSS,high polyreactivity
12,QVQLVESGGGLVQAGGSLRLSCAASGRTYGYNAMGWYRQAPGKERELVAAISRSGDSTYYADSVKGRFTISRDNAKNTVYLQMNSLKPEDTAVYYCATRYVTTGYDYWGQGTQVTVSS,low polyreactivity
13,QVQLVESGGGLVQAGGSLRLSCAASGINFDTNAIGWYRQAPGKERELVATITQRGGTTYYADSVKGRFTISRDNAKNTVYLQMNSLKPEDTAVYYCNAGPVGLPYDSWGQGTQVTVSS,low polyreactivity
14,QVQLVESGGGLVQAGGSLRLSCAASGLTFKRYAMGWYRQAPGKEREFVAAISAGGASTHYADSVKGRFTISRDNAKNTVYLQMNSLKPEDTAVYYCATDYRTFRPSFGYWGQGTQVTVSS,low polyreactivity
15,QVQLVESGGGLVQAGGSLRLSCAASGRIFDLNAMGWYRPAPGKERELVAAITNTGSTNYADSVKGRFTISRDNAKNTVYLQMNSLKPEDTAVYYCARTYWLRYYGYRDDEYDYWGQGTQVTVSS,low polyreactivity
16,QVQLQESGGGLVQAGGSQRLSCSASGYIFYFQYMGWYRQAPGKEREFVAAISDGANTNYADSVKGRFNISRDNAKNTEYLQMNSLKPEDTAVYYCAARSFFKMYYWGQGTQVTVSS,low polyreactivity
17,QVQLVESGGGLVQAGGSLRLSCAASGIIFINYAMGWYRQAPGKERELVAAINSGGSTKYADSEKGRFTISRDNAKNTVYLLMNSLKPEDTAVYDCAAVPAGRYYWWLYYYWGQGTQVTVSS,high polyreactivity
18,QVQLVESGGGIVQAGGSLRLSCAASGYTFTGYSMGWYRQAPGKEREFVAGITWRTGRTYYADSVKGRFTISRDNAKNNVYLQMNSLKREDTAVYFCYKDHQRRYYWSYDYWGQGTQVTVSS,low polyreactivity
19,QVQLVESGGGLVQAGGSLRLSCAASGSIFYHYAMGWYRQAPGKERELVAAISQSGGGTYYADSVKGRFTISRDNAKNTVYLQMNSLKPEDTAVYYCIRLSKQKQEFDYWGQGTQVTVSW,high polyreactivity
20,QVQLVESGGGLVQAGGSLRLSCAASGSIFFYNAMGWYRQAPGKERELVAAISRGGNTNYADSVKGRFTISRDNAKNTVNLQLNSLKPEDTAVYYCNADYSFWATPYWEYGYDYWGQGTQVTVTS,low polyreactivity
21,QVQLVESGGGLVQAGGSLRLSCAASGRTFYYNTMGWYRQAPGKERELVAAITRGGSTYYADSVKGRFTISRVNAKNTVYLQMNSLKPEETAVYYCNAPRYLRRYVKDHDYWGEGTQVTVSS,high polyreactivity
